Laboratory results as given in the nanobody polyreactivity screen of Harvey et al. (2022).

Test: yeast display, Sf9 membrane polyspecificity reagent, FACS + sequencing; frameworks hold sequencing errors
In short: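 In a synthetic yeast display library (Saccharomyces cerevisiae BJ5465), nanobody expression was induced with galactose for 36–48 hours. FACS gates were set low and high (top ~1%) using anti-HA fluorescence for expression and streptavidin fluorescence for binding of the Sf9 membrane reagent. Each polyreactivity label is drawn from the gate of origin.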

For “QVQLVESGGGLVQAAGSLRLSCAASGRILDFYDMGWYRQAPGKERELVAAITSGTSTYYADSVKGRFTISRDNAKNTVYLQMNSMKPEDTAVYYCAAAHVPVGQYVYWYDYWGQGTQVTVSS”, which “polyreactivity (PSR sort gate)” value is on record?
The value was “low polyreactivity”.

Which “polyreactivity (PSR sort gate)” value does the source give for “QVQLVESGGGLVQAAGSLRLSCAASGRTFSANAMGWYRQAPGKERELVATISSGGRTNYADSVKGRFTISRDNAKNTVYLQMNSLKPEDTAVYYCAKRGPYKRWYGRYDYCGQGTQVTVSS” here?
Its value is “low polyreactivity”.

For “QVQLVESGGGLVQAAGSLRLSCAASGSIFIQYAMGWYRQAPGKERELVAAITRRGGRTYYADSVKGRFTISRDNAKNTVYLQLNSLKPEDTAVYYCNAVPIGQWAYDYWGQGTQVTVSS”, which “polyreactivity (PSR sort gate)” value is on record?
Its value is “high polyreactivity”.

With “QVQLVESGGGLVQAAGSLRLSCAASGSIFTVYVMGWYRLAPGKEREFVATINWRGTSTYYADSVKGRFTISRDNEKNTVYLQMNSLKPEDTAVYYCAAVGSYYGGYDYWGQGTQVTVSS” as the sequence, how does the “polyreactivity (PSR sort gate)” value read?
The value was “high polyreactivity”.

With “QVQLVESGGGLVQAAGSLRLSCAASGSISGYYAMGWYRQAPGKERELVASIRYTGARTYYADSVKGRFTISRDNAKNTVYLQMNSLKPEDTAVYYCAADVKRDRVWGGDYWGQGTQVTVSS” as the sequence, how does the “polyreactivity (PSR sort gate)” value read?
The value was “low polyreactivity”.

With “QVQLVESGGGLVQAAGSLRLSCAASGSPFSGYAMGWYRQPPGKQRELVAAISWRGVRTSYADSVKGRFTISRDNAKNRVYLQMNSLKPEDSAVYYCDAVRYITKEFYWGQGTQVTVSS” as the sequence, how does the “polyreactivity (PSR sort gate)” value read?
Its value is “high polyreactivity”.

For “QVQLVESGGGLVQAAGSLRLSCAASGSTFADNAMGWYRQAPGKEREMVAANSRRGGSTYYADSVKGRFTISLDNAKNTVYLQMNSLKPEDTAVYYCAKPSGLVVNQYRAGMEYWGQGTQVTVSS”, which “polyreactivity (PSR sort gate)” value is on record?
Its value is “high polyreactivity”.

With “QVQLVESGGGLVQAAGSLRLSCASSGSIIFYYAMGWYRQAPGNEREFVAAITRSGVRTYYADSVKGRFTISRDNAKNTVYLQMNSLIPEDTAVYYCIAEAYPYWYRGASREYDYWGQGTQVTVSS” as the sequence, how does the “polyreactivity (PSR sort gate)” value read?
Its value is “low polyreactivity”.

With “QVQLVESGGGLVQAEGSLRLSCAASGNTFERNTMGWYRQATGKERELVAAISWSGGRTYYADSVKGRFTISRDNAKNTVYLQLNSLKPEDTAVYYCAATNYYYGAGYYYWGQGTQVTVSS” as the sequence, how does the “polyreactivity (PSR sort gate)” value read?
The value was “high polyreactivity”.

For “QVQLVESGGGLVQAGASLRISCAASGYTFYANAMGWYIQAPGKEREFVASITWSGGSTYYADSVKGRFTISRDNAKNTVYLQMNSLKPEDTAVYYCAAESWFKYDYWGQGTQVTLSS”, which “polyreactivity (PSR sort gate)” value is on record?
The value was “low polyreactivity”.

For “QVQLVESGGGLVQAGASLRLICAASGSTFQGNAIGWNRQAPGKERELVAAISRSGGSTYADSVKGRFTISRDNAKNTVYLQLNSLKPEDTAVYYCAAYSGVGYLWFDYWGQGTQVTVSS”, which “polyreactivity (PSR sort gate)” value is on record?
Its value is “low polyreactivity”.

Which “polyreactivity (PSR sort gate)” value does the source give for “QVQLVESGGGLVQAGASLRLSCAASGITFWGYAMGWYRQAPGKEREFVARINWSGGRTYYAESVKGRFTISRDNAKNTVYLEMNSLKPEDTAVYDCAATSLIYGYRTYDYWGQGTQVTVSS” here?
The value was “high polyreactivity”.

Which “polyreactivity (PSR sort gate)” value does the source give for “QVQLVESGGGLVQAGASLRLSCAASGLTFEYYTMGWYRQAPGKERELVAAITSSGGSTYYADSVKGRFTISRDNAKNTVYLQMNSLKPEDTAVYYCNAYWTYEFPSYDYWGQGTQVTVSS” here?
The value was “low polyreactivity”.

For “QVQLVESGGGLVQAGASLRLSCAASGRIYIYAMGWYRQAPGKEREMVAAITGGASTNYADSVKGRFTISRDNAKNTVYLQLISLKPEDTAVYYCNAVAYVYGSFRRRPMGYWGQGTQVTVSS”, which “polyreactivity (PSR sort gate)” value is on record?
Its value is “high polyreactivity”.

Which “polyreactivity (PSR sort gate)” value does the source give for “QVQLVESGGGLVQAGASLRLSCAASGRTFAYYAMGWYRQAPGKERELVATITSSVGRTYYADSVKGRFTISRDNAKNTVYLQINSLKPEDTAVYYCNASDWGRTRGGGYPWLYRYDYWGQGTQVTVSS” here?
The value was “low polyreactivity”.

For “QVQLVESGGGLVQAGASLRLSCAASGRTFHYYVKGWYRQAPGKERELVAAISRSGGRTYYADSVKGRFTISRDNAKNTVYLQMNSLNPEDTAVYFCAARSGYYYSEGAWRRDYWGQGTQVTLSS”, which “polyreactivity (PSR sort gate)” value is on record?
The value was “high polyreactivity”.

Which “polyreactivity (PSR sort gate)” value does the source give for “QVQLVESGGGLVQAGASLRLSCAASGRTLTGYAMGWYRQAPGKERELVAAITWRDSTYYADSVKGRFTISRDNAKNTVYLQMNSLKPEDTAVYYCNADNATYFVYEFNYWGQGTQVTVSS” here?
Its value is “low polyreactivity”.

With “QVQLVESGGGLVQAGASLRLSCAASGSIFIWYAMGWYRQAPGKERELVAAITSSGSTNYADSVKGRFTISRDNAKNPVYLQMNSLKPEDTAVYYCAAEYTYYTYNLNYWGQGTQVTVSS” as the sequence, how does the “polyreactivity (PSR sort gate)” value read?
Its value is “low polyreactivity”.

With “QVQLVESGGGLVQAGASLRLSCAASGSIFVLYGMGWYRQAPGKERELVAAISAGITNYADSVKGRFTISRDNAKNTVYLQMNSLKPEDTAVYYCATVDGAYQYTYDFWGQGTQVTVSS” as the sequence, how does the “polyreactivity (PSR sort gate)” value read?
Its value is “low polyreactivity”.

Which “polyreactivity (PSR sort gate)” value does the source give for “QVQLVESGGGLVQAGASLRLSCAASGSIFYDNAMGWYRQAPGKERELVASIRWSGDSTYYADSVKGRITISRDNAKNTVYLQMNSLKPEDTAVYYCAADPVEPYFTAIAYDYWGQGTQVTVSS” here?
Its value is “low polyreactivity”.

With “QVQLVESGGGLVQAGASLRLSCAASGSTFLLNAMGWYRQAPGKERELVAAITSSGGTNYADSVKGRFTISRDNAKNTVYLQMNSLKPEDTAVYYCNTRYSPGYQGSEVDYWGQGTQVTVSS” as the sequence, how does the “polyreactivity (PSR sort gate)” value read?
Its value is “low polyreactivity”.

For “QVQLVESGGGLVQAGASLRLSCAASGSTFYFYTMGWYRQAPWKERELVAAITRDGSTYYADSVKGRFTISRDNAKNTVYLQMNSLKPEDTAVYYCNALRWAYKFSAYYYWGQGTQVSVSS”, which “polyreactivity (PSR sort gate)” value is on record?
Its value is “low polyreactivity”.

Which “polyreactivity (PSR sort gate)” value does the source give for “QVQLVESGGGLVQAGASLRLSCAASGSTYVRNAMGWYRQAPGKERELVAAITSGGNTYADSVKGRFTISRDNAKNTVYLQMNSLKPEDTAVYYSAAANEFGDVWAQFDYWGQGTQVTVSS” here?
Its value is “low polyreactivity”.

With “QVQLVESGGGLVQAGASLRLSCAASVSIFDTNAMGWYRQAPGKERELVASISSGGGSTYYADSVKGRFTISRDNAKNTVYLQMNSLKPEDTAVYFCARRIGHGSRPYWLETWRYAYDYWGQGSQVTVSS” as the sequence, how does the “polyreactivity (PSR sort gate)” value read?
Its value is “low polyreactivity”.

For “QVQLVESGGGLVQAGATIRLSCAASVRTFESNALGWYRQEPGKERELVAGITSGGITNYADSVKGRFTISRDNAKNNVYLQMNSLKPEDTAVYYCEFYYWGQGTQVTVSS”, which “polyreactivity (PSR sort gate)” value is on record?
Its value is “low polyreactivity”.

Which “polyreactivity (PSR sort gate)” value does the source give for “QVQLVESGGGLVQAGCRLRLSCAAAAYIYRYAMGWYIQAPGKEREFVAAITWNGGSTYYADSVNGRFTISRDNAKITVYLQMNSLKPEDTGVYYCADDWSYYRRHFDYWGHGTQVTVSS” here?
The value was “high polyreactivity”.

For “QVQLVESGGGLVQAGCSLGLSCAASGRIVDYKAMGWYRQAPGKEWELVATLTSSSVRTHYPDSLKGRFSISRDNAKNTVYLQMNSLNPEDTSVYYWNAAYGPRYPRRYDYWGQGTQVTVSS”, which “polyreactivity (PSR sort gate)” value is on record?
The value was “low polyreactivity”.

With “QVQLVESGGGLVQAGCSLRGSCAAYRSTFIRYAMGWSRPAPGKERELVAAITWRGGSTYYADSVKGRFTISRDNEKNTVYLQMKSLKPDDSAVSFCAARDRDTRNYYWVQGTQVTVSS” as the sequence, how does the “polyreactivity (PSR sort gate)” value read?
Its value is “high polyreactivity”.

For “QVQLVESGGGLVQAGCSLRISCAASGITFGRKTMGWSRQAPGKERELVAAIDSGGNTYADSVKGRFTISRDNAKNTVYLQMNSLKPEDTAVYYCAVDGGEFSSYGYWGQGTQVTVSS”, which “polyreactivity (PSR sort gate)” value is on record?
Its value is “low polyreactivity”.

Which “polyreactivity (PSR sort gate)” value does the source give for “QVQLVESGGGLVQAGCSLRLICAAAGIIFSSYAMGWYRQAPGKERELVAAISWNGGRTYYADSVKGRFTISRDNAKNTVYLQMNSLKPEDTAVYYCAAPHSVPDLHSGDYWGQGTQVTVSS” here?
The value was “low polyreactivity”.

With “QVQLVESGGGLVQAGCSLRLICAASGLYAMGWYRQAPGKERELVADINSSGGSITNYADSVKGRFTISRDNAKNTVYLQMNSLKPEDTAVYDCAAPALGNYFYGYDYWGQGTQVTVSS” as the sequence, how does the “polyreactivity (PSR sort gate)” value read?
The value was “low polyreactivity”.

With “QVQLVESGGGLVQAGCSLRLRCAASGFTFYSYAMGWYRQAPGKERELVANITIGGSTYADSVKGRFTISRDNAKNNVYLQMNSLNPEDTAVYYCARGYRVVGDPLYGEYDYWGQGSQVTVSS” as the sequence, how does the “polyreactivity (PSR sort gate)” value read?
The value was “low polyreactivity”.

Which “polyreactivity (PSR sort gate)” value does the source give for “QVQLVESGGGLVQAGCSLRLSCAASGFIFGPNAMGWYRQAPGKERELVAAISWIGSSTYYADSVKGRFTISRDNAKNTVYLQMNSLKPQDNAVYYCAADSSERRLMDFDYWGQGTQVTVSS” here?
The value was “low polyreactivity”.

With “QVQLVESGGGLVQAGCSLRLSCAASGFIFIRYAKGWYRQAPGQESELVASISSGGSTYYADSVKGRFTISRDNAKNTVYLQMNSLKPEDTAVYYCAAVFSKGLEGDYWGQGTQVTVSS” as the sequence, how does the “polyreactivity (PSR sort gate)” value read?
Its value is “high polyreactivity”.

With “QVQLVESGGGLVQAGCSLRLSCAASGFILNWYAMGCYRQAPGKERELVAAISWTTSDTYYADSVKGRFTISRDNAKHTVYLQMNSLKPEDQAVYYCATQGYISFPPPAYYEYNYWGQGTQETVSS” as the sequence, how does the “polyreactivity (PSR sort gate)” value read?
Its value is “low polyreactivity”.

With “QVQLVESGGGLVQAGCSLRLSCAASGFILSDNAMGWYRQAPGKERELVAAINSGGSTYYADSVKGRFTISRDNAKNTVYFQMNSLKPEDSAVYYCAADYSTWLRAYDYWGQGTQVTVSS” as the sequence, how does the “polyreactivity (PSR sort gate)” value read?
Its value is “low polyreactivity”.

With “QVQLVESGGGLVQAGCSLRLSCAASGFTFAKYAMGRYRQAPGKERELVAAITYRDGSTYYADSVKGRFTISRDYAKNTVYLQMNSLKPEDSAVYYCAAVASYVRYGYWGQGTQVTVSS” as the sequence, how does the “polyreactivity (PSR sort gate)” value read?
The value was “high polyreactivity”.

Which “polyreactivity (PSR sort gate)” value does the source give for “QVQLVESGGGLVQAGCSLRLSCAASGFTFFRNAMGWYRQAPGKERELVAAISGSGGSTYYADSVKGRFTISRDNAKNTVYLQMNSLKPEDTAVYYCATYSYPAKVREAYNYWGQGTQVTVSS” here?
The value was “low polyreactivity”.

For “QVQLVESGGGLVQAGCSLRLSCAASGFTFGDNAMGWYRQAPGKDRELDARITGDGSTYYADSVKGRFTISRDNAKNTVYLQTNSLKPEDTAVYYCAADYSPRYTQIEYGYWGQGTQVTVSS”, which “polyreactivity (PSR sort gate)” value is on record?
The value was “low polyreactivity”.

For “QVQLVESGGGLVQAGCSLRLSCAASGFTFRANGMGWYRQAPGKERELVATITSGGTTNYADSVKGRFTISRDNAKNTVYLQMNSLKPEDTAVYYCAKRFGPAYFRLYDYWGQGTQVTVSS”, which “polyreactivity (PSR sort gate)” value is on record?
Its value is “low polyreactivity”.

Which “polyreactivity (PSR sort gate)” value does the source give for “QVQLVESGGGLVQAGCSLRLSCAASGFTFRYYAMGSYRQAPGKERELVSAISQSGGLTFYADSVKGRFTISRDNAKITVYLQMNSLKPVDTAVFYCAAGRRTYPSKYGSWGQGSQVTVSS” here?
The value was “high polyreactivity”.

Which “polyreactivity (PSR sort gate)” value does the source give for “QVQLVESGGGLVQAGCSLRLSCAASGGTFRSNAMGWYRKAPGKERELVAASTNYADSVKGRFTISRDNAKNTVYLQMNSLKPEDTAVYYCAAGPTDSQTGMDYWGQGTQVTVSS” here?
The value was “low polyreactivity”.

Which “polyreactivity (PSR sort gate)” value does the source give for “QVQLVESGGGLVQAGCSLRLSCAASGGTFSLNAMGCYRQAPGKERELVAAITWTGDRTYYADSVKGRFTISRDNAKNTVYLQMNSLKPEDTAVYYCAAVGGYYPGDYWGQGTQVTVSS” here?
Its value is “low polyreactivity”.
